± gives the standard deviation of the averaged measurements.
Tested on: ATP
Test: switch fluorescence ratio, 500 uM ATP over buffer (Cy3 cluster intensity, sum of 5 cycles each) (fold (ratio)); higher = stronger signal-on switching upon ATP binding; sequences stand for … in TCGTCGGCAGCGTCAGATGTGTATAAGAGACAGTTTTTTTTTTTTTTTTTTTTTTTTT…TC
Settings: aptamer strand: ATP DNA aptamer (quencher-CACCTGGGGGAGTATTGCGGAGGAAGG + anchor), 100 nM annealed; ATP concentration: 500 uM
How it was run: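 Cy3-labelled switching-strand clusters on a modified Illumina MiSeq flow-cell were annealed to 100 nM quencher-labelled ATP aptamer, imaged in selection buffer, then imaged after 15 min with 500 uM ATP at 22 °C. Five buffer/ATP cycles ran, with NaOH stripping and re-annealing between them. The fluorescence ratio is summed target-cycle over summed buffer-cycle Cy3 intensity per cluster, averaged per switch-domain sequence. Clusters outside 100-1000 RFU were excluded.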
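Further: ATP exposure 15 min at 22 °C before imaging.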

TTTGGTCCGG
switch fluorescence ratio: 1.01 ± 0.029

CCGTTGATGT
switch fluorescence ratio: 1.014 ± 0.002

GCGGGCTTCA
switch fluorescence ratio: 1.01 ± 0.025

ATGTTGTTAC
switch fluorescence ratio: 1.01 ± 0.025

TAAGAAGTTT
switch fluorescence ratio: 0.996 ± 0.028

ACGTTGGTGC
switch fluorescence ratio: 1.06 ± 0.029

GCTAAAAAGA
switch fluorescence ratio: 1 ± 0.076

CTTGTAATTT
switch fluorescence ratio: 1.02 ± 0.035

TTAGAGTTTA
switch fluorescence ratio: 0.975 ± 0.014

GTTGGAATGG
switch fluorescence ratio: 1.01 ± 0.014

TTCAATGGTT
switch fluorescence ratio: 1.02 ± 0.035

TCGTGAGCGG
switch fluorescence ratio: 0.996 ± 0.034

TCACGTTATG
switch fluorescence ratio: 1.11 ± 0.026

TTTATCACAG
switch fluorescence ratio: 1.014 ± 0.0041

CGGTTTTTAC
switch fluorescence ratio: 1.08 ± 0.041

GGACTCTGCG
switch fluorescence ratio: 1 ± 0.028

GACGGAAGTT
switch fluorescence ratio: 1.004 ± 0.0017

AATTCGTCG
switch fluorescence ratio: 0.9557 ± 0.0045

GGTGGGTGAG
switch fluorescence ratio: 0.9745 ± 0.0094

GCAGGGAGCG
switch fluorescence ratio: 0.978 ± 0.027

AGTATTACGG
switch fluorescence ratio: 0.9989 ± 0.0088

GACGGAAGAA
switch fluorescence ratio: 1.74 ± 0.072

AGAAGTAATG
switch fluorescence ratio: 0.997 ± 0.011

CCGAACTGAT
switch fluorescence ratio: 1.13 ± 0.027

AGGATTTTTG
switch fluorescence ratio: 1.02 ± 0.021

TACTTCCTCC
switch fluorescence ratio: 3.8 ± 0.44

ATTGCATGCA
switch fluorescence ratio: 0.985 ± 0.026

AGCTTGGATA
switch fluorescence ratio: 1.017 ± 0.01

AAAAAACCTA
switch fluorescence ratio: 1.063 ± 0.008

ACTTGAGGAT
switch fluorescence ratio: 1 ± 0.017

TAATGATTTC
switch fluorescence ratio: 0.992 ± 0.011

GACTTTTTAG
switch fluorescence ratio: 0.9801 ± 0.0065

GATGATCGGG
switch fluorescence ratio: 1.02 ± 0.013

ATGAATTTTT
switch fluorescence ratio: 0.992 ± 0.042

ATGGTACCGT
switch fluorescence ratio: 1.02 ± 0.014

TGTGTTTGAG
switch fluorescence ratio: 0.972 ± 0.051

AGGGGCGCCG
switch fluorescence ratio: 1 ± 0.06

TTATTTCCGG
switch fluorescence ratio: 1.01 ± 0.028

TTGGTTGTTT
switch fluorescence ratio: 1 ± 0.052

AAAGGGTTTG
switch fluorescence ratio: 1.01 ± 0.033

GGCGACGGAG
switch fluorescence ratio: 0.97 ± 0.0076

CGGGGAAGTC
switch fluorescence ratio: 1.02 ± 0.044

CGGATTTGGA
switch fluorescence ratio: 0.976 ± 0.051

GAGGGGGATT
switch fluorescence ratio: 0.991 ± 0.028

TGCGTAAAAT
switch fluorescence ratio: 1.008 ± 0.0028

CTTTATGTCG
switch fluorescence ratio: 1.02 ± 0.048

ACTTTTCTCG
switch fluorescence ratio: 1.01 ± 0.011

ACGGGCTTTT
switch fluorescence ratio: 1.01 ± 0.012

CGGAAGATTA
switch fluorescence ratio: 0.9588 ± 0.0045

TGGGGGTAGC
switch fluorescence ratio: 1.001 ± 0.0091

TGAGTCCCGG
switch fluorescence ratio: 1 ± 0.016

CGCGGGATGT
switch fluorescence ratio: 1.02 ± 0.045

TTTAGACCCT
switch fluorescence ratio: 1.013 ± 0.0046

AACCGGTAAT
switch fluorescence ratio: 1.01 ± 0.022

TTATCGGGAC
switch fluorescence ratio: 1 ± 0.049

GACTTTTACC
switch fluorescence ratio: 1.07 ± 0.027

GTTTTCGCGA
switch fluorescence ratio: 1.06 ± 0.04

GTGAGGGGGA
switch fluorescence ratio: 1 ± 0.033

GATAATGGTA
switch fluorescence ratio: 1.008 ± 0.005

TGATATTATT
switch fluorescence ratio: 1.02 ± 0.015

TGACTATGCT
switch fluorescence ratio: 0.98 ± 0.02

CGCTTGCCAG
switch fluorescence ratio: 0.972 ± 0.027

GAATGTATCG
switch fluorescence ratio: 0.981 ± 0.021

AAAAAGGTTT
switch fluorescence ratio: 0.978 ± 0.037

CAGAGCCAAC
switch fluorescence ratio: 1.11 ± 0.016

TTCCTCAGAC
switch fluorescence ratio: 1.6 ± 0.87

CCGTTGTCCA
switch fluorescence ratio: 1.02 ± 0.032

TCTTTGCCGT
switch fluorescence ratio: 0.982 ± 0.021

GCATAATTTA
switch fluorescence ratio: 0.9898 ± 0.0096

ATTTGCCGGG
switch fluorescence ratio: 1.031 ± 0.0081

GGCGATTGGG
switch fluorescence ratio: 0.99 ± 0.026

TTAGACATAT
switch fluorescence ratio: 1.02 ± 0.021

GGGACATTGT
switch fluorescence ratio: 0.963 ± 0.03

ATTTGCTGCG
switch fluorescence ratio: 0.947 ± 0.087

GATTTTTACG
switch fluorescence ratio: 1 ± 0.033

AGTAAAGTGT
switch fluorescence ratio: 0.99703 ± 0.00028

AGGTACGTTT
switch fluorescence ratio: 1.03 ± 0.02

AAACTGCTCG
switch fluorescence ratio: 1.04 ± 0.064

TGTGGGTGAG
switch fluorescence ratio: 1 ± 0.02

TTAAAAATGT
switch fluorescence ratio: 0.958 ± 0.069

CTCCACGGGA
switch fluorescence ratio: 1.144 ± 0.011

TGGATTGTCC
switch fluorescence ratio: 1.03 ± 0.012

AAAGCTATAT
switch fluorescence ratio: 1.12 ± 0.011

TTGATAGCTT
switch fluorescence ratio: 0.998 ± 0.018

GTTGTCATGC
switch fluorescence ratio: 1.02 ± 0.033

AAGAGGAGCG
switch fluorescence ratio: 0.9668 ± 0.0078

GACCACGCTG
switch fluorescence ratio: 1.044 ± 0.0056

TTGTTAGATG
switch fluorescence ratio: 1.011 ± 0.0066

GGGAAGGAGT
switch fluorescence ratio: 0.992 ± 0.043

TTAAGAAGCC
switch fluorescence ratio: 0.987 ± 0.049

AAAGAACACG
switch fluorescence ratio: 1.05 ± 0.1

AGCAGAAATC
switch fluorescence ratio: 1.07 ± 0.039

AAATAAACGC
switch fluorescence ratio: 1.025 ± 0.0031

ACATTGAAAA
switch fluorescence ratio: 0.996 ± 0.036

GCGAGAACGG
switch fluorescence ratio: 1.01 ± 0.034

GGGTGGCGGT
switch fluorescence ratio: 1.01 ± 0.021

TTAAGGGGAA
switch fluorescence ratio: 1.06 ± 0.063

CTTTTATGGG
switch fluorescence ratio: 0.993 ± 0.023

TTGTACCAAA
switch fluorescence ratio: 0.992 ± 0.047

CAATGGAGGG
switch fluorescence ratio: 0.992 ± 0.033

TACACCGCGG
switch fluorescence ratio: 1.02 ± 0.027

CGCGATATTG
switch fluorescence ratio: 1.58 ± 0.018

AGTGTGTGGC
switch fluorescence ratio: 1.01 ± 0.016

ACGGTATTTT
switch fluorescence ratio: 1.09 ± 0.052

CAATTATGTA
switch fluorescence ratio: 0.963 ± 0.016

TTATACGGCG
switch fluorescence ratio: 1.06 ± 0.0059

AGATGTGGGA
switch fluorescence ratio: 1 ± 0.013

GTCGTTTGGA
switch fluorescence ratio: 1.01 ± 0.035

GGATTTGGCT
switch fluorescence ratio: 0.999 ± 0.029

AAAAGATTGG
switch fluorescence ratio: 0.969 ± 0.011

GGGGGAATTA
switch fluorescence ratio: 1.01 ± 0.029

TGTTCTTAGT
switch fluorescence ratio: 1 ± 0.048

TTGTGCTTGT
switch fluorescence ratio: 0.983 ± 0.019

TATAGACTTA
switch fluorescence ratio: 0.994 ± 0.026

GCAGGGATGG
switch fluorescence ratio: 0.985 ± 0.035

AGCGTTTCCG
switch fluorescence ratio: 0.99 ± 0.028

ATGGAACTTG
switch fluorescence ratio: 0.9943 ± 0.0059

GACATGATGT
switch fluorescence ratio: 1.032 ± 0.0063

TTTACAAAGT
switch fluorescence ratio: 0.994 ± 0.049

GGGGGGTGCT
switch fluorescence ratio: 1.02 ± 0.03

GGTGGTGGCG
switch fluorescence ratio: 1.01 ± 0.059

ATGGGGGCTT
switch fluorescence ratio: 1.02 ± 0.047

AGTCGGGATG
switch fluorescence ratio: 0.963 ± 0.035

TCCCCATGGT
switch fluorescence ratio: 2.07 ± 0.068

CCGAACGTCG
switch fluorescence ratio: 1.88 ± 0.27

GGTGTTCTGC
switch fluorescence ratio: 0.995 ± 0.081

TAAGTGCCAC
switch fluorescence ratio: 1.01 ± 0.024

TTTCTTTGGG
switch fluorescence ratio: 0.998 ± 0.043

AAGATATGAT
switch fluorescence ratio: 0.989 ± 0.032

AGTAAAGTGG
switch fluorescence ratio: 0.971 ± 0.025

TTGGGTCGGC
switch fluorescence ratio: 1.0032 ± 0.001

TATGTGGGCC
switch fluorescence ratio: 0.97 ± 0.041

GGAGAGGGCA
switch fluorescence ratio: 1.016 ± 0.0077

TGGGTCAAAT
switch fluorescence ratio: 1.02 ± 0.027

TTCGGTTATA
switch fluorescence ratio: 0.986 ± 0.053

CCGTTATTAG
switch fluorescence ratio: 1.3518 ± 0.0007

ACTGTTAATG
switch fluorescence ratio: 1.01 ± 0.026

TTTGTAACCT
switch fluorescence ratio: 1.74 ± 0.035

TCTTACAATT
switch fluorescence ratio: 0.971 ± 0.036

CAGCTAGATA
switch fluorescence ratio: 0.9987 ± 0.0065

GGAGCATTTT
switch fluorescence ratio: 1.78 ± 0.88

ATCGCTTAAG
switch fluorescence ratio: 0.991 ± 0.035

CGGGGGAGGG
switch fluorescence ratio: 1.16 ± 0.45

TCCAGCTAAA
switch fluorescence ratio: 1.09 ± 0.014

TTTTGGTTCC
switch fluorescence ratio: 1.01 ± 0.016

TCATTTGGAG
switch fluorescence ratio: 0.9816 ± 0.0076

GAAGTTATTG
switch fluorescence ratio: 0.9898 ± 0.0022

AGGGGTGTT
switch fluorescence ratio: 1.02 ± 0.016

CTGTTTGTGC
switch fluorescence ratio: 0.975 ± 0.013

AATTAGATTC
switch fluorescence ratio: 0.994 ± 0.055

ATGTAAGAGG
switch fluorescence ratio: 0.9754 ± 0.0093

TCTTATATTT
switch fluorescence ratio: 0.9977 ± 0.0021

TCAGTAGATC
switch fluorescence ratio: 1.02 ± 0.044

TCAGGGGATC
switch fluorescence ratio: 1.01 ± 0.017

ATCACGGGCT
switch fluorescence ratio: 0.967 ± 0.027

TTTGAGGGCT
switch fluorescence ratio: 1.006 ± 0.0023

CAGGGGGAGG
switch fluorescence ratio: 1.03 ± 0.048

From the supplement of paper PMC10126150
